What was measured:
Assay in all cases: cell-based or functional assay
[1] = biological target: HIV-1 Env of pseudovirus 0815.v3.c3 (HIV-1)
[2] = biological target: HIV-1 Env of pseudovirus T257-31 (HIV-1)
[3] = biological target: HIV-1 Env of pseudovirus BJOX028000.10.3 (HIV-1)
[4] = biological target: HIV-1 Env of pseudovirus 231966.c02 (HIV-1)
[5] = biological target: HIV-1 Env of pseudovirus 3817.v2.c59 (HIV-1)
[6] = biological target: HIV-1 Env of pseudovirus A07412M1.vrc12 (HIV-1)
[7] = biological target: HIV-1 Env of pseudovirus T255-34 (HIV-1)
[8] = biological target: HIV-1 Env of pseudovirus 89-F1_2_25 (HIV-1)
[9] = biological target: HIV-1 Env of pseudovirus C4118.c09 (HIV-1)
[10] = biological target: HIV-1 Env of pseudovirus R3265.c06 (HIV-1)
[11] = biological target: HIV-1 Env of pseudovirus X1254_c3 (HIV-1)
[12] = biological target: HIV-1 Env of pseudovirus BJOX015000.11.5 (HIV-1)
[13] = biological target: HIV-1 Env of pseudovirus 928-28 (HIV-1)
[14] = biological target: HIV-1 Env of pseudovirus R1166.c01 (HIV-1)
[15] = biological target: HIV-1 Env of pseudovirus 6811.v7.c18 (HIV-1)
[16] = biological target: HIV-1 Env of pseudovirus 3103.v3.c10 (HIV-1)
[17] = biological target: HIV-1 Env of pseudovirus T251-18 (HIV-1)
[18] = biological target: HIV-1 Env of pseudovirus 6540.v4.c1 (HIV-1)
[19] = biological target: HIV-1 Env of pseudovirus 3301.v1.c24 (HIV-1)
[20] = biological target: HIV-1 Env of pseudovirus 3016.v5.c45 (HIV-1)
[21] = biological target: HIV-1 Env of pseudovirus 235-47 (HIV-1)
[22] = biological target: HIV-1 Env of pseudovirus 9004SS_A3_4 (HIV-1)
[23] = biological target: HIV-1 Env of pseudovirus BJOX010000.06.2 (HIV-1)
[24] = biological target: HIV-1 Env of pseudovirus 620345.c01 (HIV-1)
[25] = biological target: HIV-1 Env of pseudovirus X2131_C1_B5 (HIV-1)
[26] = biological target: HIV-1 Env of pseudovirus 211-9 (HIV-1)
[27] = biological target: HIV-1 Env of pseudovirus 231965.c01 (HIV-1)
[28] = biological target: HIV-1 Env of pseudovirus R2184.c04 (HIV-1)
[29] = biological target: HIV-1 Env of pseudovirus 263-8 (HIV-1)
[30] = biological target: HIV-1 Env of pseudovirus 6480.v4.c25 (HIV-1)
[31] = biological target: HIV-1 Env of pseudovirus P1981_C5_3 (HIV-1)
[32] = biological target: HIV-1 Env of pseudovirus 6952.v1.c20 (HIV-1)
[33] = biological target: HIV-1 Env of pseudovirus 191955_A11 (HIV-1)
[34] = biological target: HIV-1 Env of pseudovirus C3347.c11 (HIV-1)
[35] = biological target: HIV-1 Env of pseudovirus 6545.v4.c1 (HIV-1)
[36] = biological target: HIV-1 Env of pseudovirus BJOX025000.01.1 (HIV-1)
[37] = biological target: HIV-1 Env of pseudovirus P0402_c2_11 (HIV-1)

**Q.** Which neutralization IC50 [1] does the source give for N49P9.1 (antibody) here?
**A.** 0.012 µg/mL

**Q.** And the neutralization IC80 [1]?
**A.** 0.041 µg/mL

**Q.** What about the neutralization MPI [1] of the same substance?
**A.** 100

**Q.** What about the neutralization IC50 [2] of the same substance?
**A.** 0.508 µg/mL

**Q.** And the neutralization IC80 [2]?
**A.** 1.82 µg/mL

**Q.** What about the neutralization MPI [2] of the same substance?
**A.** 100

**Q.** And the neutralization IC50 [3]?
**A.** 0.04 µg/mL

**Q.** What about the neutralization IC80 [3] of the same substance?
**A.** 0.2 µg/mL

**Q.** And the neutralization MPI [3]?
**A.** 100

**Q.** What about the neutralization IC50 [4] of the same substance?
**A.** 0.067 µg/mL

**Q.** What about the neutralization IC80 [4] of the same substance?
**A.** 0.237 µg/mL

**Q.** What about the neutralization MPI [4] of the same substance?
**A.** 100

**Q.** What about the neutralization IC50 [5] of the same substance?
**A.** 1.35 µg/mL

**Q.** And the neutralization IC80 [5]?
**A.** 8.26 µg/mL

**Q.** And the neutralization MPI [5]?
**A.** 95

**Q.** What about the neutralization IC50 [6] of the same substance?
**A.** 0.189 µg/mL

**Q.** What about the neutralization IC80 [6] of the same substance?
**A.** 0.947 µg/mL

**Q.** And the neutralization MPI [6]?
**A.** 100

**Q.** And the neutralization IC50 [7]?
**A.** 0.092 µg/mL

**Q.** And the neutralization IC80 [7]?
**A.** 0.286 µg/mL

**Q.** What about the neutralization MPI [7] of the same substance?
**A.** 100

**Q.** And the neutralization IC50 [8]?
**A.** > 50 µg/mL

**Q.** And the neutralization IC80 [8]?
**A.** > 50 µg/mL

**Q.** And the neutralization MPI [8]?
**A.** 23

**Q.** What about the neutralization IC50 [9] of the same substance?
**A.** 0.062 µg/mL

**Q.** And the neutralization IC80 [9]?
**A.** 0.218 µg/mL

**Q.** And the neutralization MPI [9]?
**A.** 100

**Q.** And the neutralization IC50 [10]?
**A.** 0.469 µg/mL

**Q.** And the neutralization IC80 [10]?
**A.** 1.62 µg/mL

**Q.** And the neutralization MPI [10]?
**A.** 100

**Q.** And the neutralization IC50 [11]?
**A.** 0.101 µg/mL

**Q.** And the neutralization IC80 [11]?
**A.** 0.278 µg/mL

**Q.** What about the neutralization MPI [11] of the same substance?
**A.** 100

**Q.** And the neutralization IC50 [12]?
**A.** 0.068 µg/mL

**Q.** And the neutralization IC80 [12]?
**A.** 0.478 µg/mL

**Q.** And the neutralization MPI [12]?
**A.** 100

**Q.** What about the neutralization IC50 [13] of the same substance?
**A.** 0.163 µg/mL

**Q.** And the neutralization IC80 [13]?
**A.** 0.695 µg/mL

**Q.** What about the neutralization MPI [13] of the same substance?
**A.** 100

**Q.** What about the neutralization IC50 [14] of the same substance?
**A.** 0.073 µg/mL

**Q.** What about the neutralization IC80 [14] of the same substance?
**A.** 0.232 µg/mL

**Q.** What about the neutralization MPI [14] of the same substance?
**A.** 100

**Q.** And the neutralization IC50 [15]?
**A.** 0.398 µg/mL

**Q.** And the neutralization IC80 [15]?
**A.** 1.76 µg/mL

**Q.** What about the neutralization MPI [15] of the same substance?
**A.** 97

**Q.** What about the neutralization IC50 [16] of the same substance?
**A.** > 50 µg/mL

**Q.** What about the neutralization IC80 [16] of the same substance?
**A.** > 50 µg/mL

**Q.** And the neutralization MPI [16]?
**A.** 45

**Q.** And the neutralization IC50 [17]?
**A.** 0.127 µg/mL

**Q.** What about the neutralization IC80 [17] of the same substance?
**A.** 0.352 µg/mL

**Q.** And the neutralization MPI [17]?
**A.** 100

**Q.** And the neutralization IC50 [18]?
**A.** > 50 µg/mL

**Q.** And the neutralization IC80 [18]?
**A.** > 50 µg/mL

**Q.** And the neutralization MPI [18]?
**A.** 30

**Q.** And the neutralization IC50 [19]?
**A.** 0.059 µg/mL

**Q.** And the neutralization IC80 [19]?
**A.** 0.178 µg/mL

**Q.** What about the neutralization MPI [19] of the same substance?
**A.** 100

**Q.** What about the neutralization IC50 [20] of the same substance?
**A.** 0.076 µg/mL

**Q.** What about the neutralization IC80 [20] of the same substance?
**A.** 0.223 µg/mL

**Q.** What about the neutralization MPI [20] of the same substance?
**A.** 100

**Q.** And the neutralization IC50 [21]?
**A.** 0.045 µg/mL

**Q.** And the neutralization IC80 [21]?
**A.** 0.352 µg/mL

**Q.** What about the neutralization MPI [21] of the same substance?
**A.** 98

**Q.** What about the neutralization IC50 [22] of the same substance?
**A.** 0.323 µg/mL

**Q.** What about the neutralization IC80 [22] of the same substance?
**A.** 1.13 µg/mL

**Q.** And the neutralization MPI [22]?
**A.** 100

**Q.** What about the neutralization IC50 [23] of the same substance?
**A.** 0.883 µg/mL

**Q.** And the neutralization IC80 [23]?
**A.** 4.26 µg/mL

**Q.** And the neutralization MPI [23]?
**A.** 100

**Q.** And the neutralization IC50 [24]?
**A.** > 50 µg/mL

**Q.** What about the neutralization IC80 [24] of the same substance?
**A.** > 50 µg/mL

**Q.** And the neutralization MPI [24]?
**A.** 7

**Q.** What about the neutralization IC50 [25] of the same substance?
**A.** 0.143 µg/mL

**Q.** And the neutralization IC80 [25]?
**A.** 0.476 µg/mL

**Q.** What about the neutralization MPI [25] of the same substance?
**A.** 100

**Q.** And the neutralization IC50 [26]?
**A.** 0.17 µg/mL

**Q.** And the neutralization IC80 [26]?
**A.** 0.579 µg/mL

**Q.** What about the neutralization MPI [26] of the same substance?
**A.** 100

**Q.** And the neutralization IC50 [27]?
**A.** 0.474 µg/mL

**Q.** What about the neutralization IC80 [27] of the same substance?
**A.** 2.24 µg/mL

**Q.** And the neutralization MPI [27]?
**A.** 100

**Q.** What about the neutralization IC50 [28] of the same substance?
**A.** 0.019 µg/mL

**Q.** And the neutralization IC80 [28]?
**A.** 0.057 µg/mL

**Q.** And the neutralization MPI [28]?
**A.** 100

**Q.** What about the neutralization IC50 [29] of the same substance?
**A.** 0.049 µg/mL

**Q.** And the neutralization IC80 [29]?
**A.** 0.17 µg/mL

**Q.** And the neutralization MPI [29]?
**A.** 100

**Q.** And the neutralization IC50 [30]?
**A.** 0.03 µg/mL

**Q.** And the neutralization IC80 [30]?
**A.** 0.082 µg/mL

**Q.** What about the neutralization MPI [30] of the same substance?
**A.** 100

**Q.** And the neutralization IC50 [31]?
**A.** 0.469 µg/mL

**Q.** What about the neutralization IC80 [31] of the same substance?
**A.** 1.52 µg/mL

**Q.** What about the neutralization MPI [31] of the same substance?
**A.** 100

**Q.** And the neutralization IC50 [32]?
**A.** 0.119 µg/mL

**Q.** What about the neutralization IC80 [32] of the same substance?
**A.** 0.389 µg/mL

**Q.** And the neutralization MPI [32]?
**A.** 100

**Q.** What about the neutralization IC50 [33] of the same substance?
**A.** > 50 µg/mL

**Q.** What about the neutralization IC80 [33] of the same substance?
**A.** > 50 µg/mL

**Q.** And the neutralization MPI [33]?
**A.** 26

**Q.** And the neutralization IC50 [34]?
**A.** 0.029 µg/mL

**Q.** What about the neutralization IC80 [34] of the same substance?
**A.** 0.083 µg/mL

**Q.** What about the neutralization MPI [34] of the same substance?
**A.** 100

**Q.** And the neutralization IC50 [35]?
**A.** > 50 µg/mL

**Q.** What about the neutralization IC80 [35] of the same substance?
**A.** > 50 µg/mL

**Q.** And the neutralization MPI [35]?
**A.** 6

**Q.** And the neutralization IC50 [36]?
**A.** 0.131 µg/mL

**Q.** What about the neutralization IC80 [36] of the same substance?
**A.** 0.67 µg/mL

**Q.** And the neutralization MPI [36]?
**A.** 100

**Q.** And the neutralization IC50 [37]?
**A.** 0.06 µg/mL

**Q.** And the neutralization IC80 [37]?
**A.** 0.163 µg/mL

**Q.** And the neutralization MPI [37]?
**A.** 100

— patent US20240117018A1
